# Tested on: Pin1 R14A (SEQ ID NO:2)
substance,measurement,value
phosphokinase A (PKA),"MALDI-TOF of partial tryptic digest, mass gain of peptide 69-74",the peak corresponding to residues 69-74 of Pin1 gains ~80 Daltons after treatment with PKA
same,"proline isomerase activity (protease-coupled assay, rate constant of isomerization)",phosphorylation of Pin1 R14A at position 71 by PKA inhibits the ability of the enzyme to isomerizes substrate

# — patent US20060074222
